The values below are quoted from earlier work in paper PMC5576430.

Where two headings read alike, the source gives them in different places.

Data set [1] has as its target p300 CH1 (Homo sapiens) (UniProt Q09472). Kind of data set: tryptophan fluorescence.
The target is the same in data set [2].
Data set [3] has as its target HIF-1α (Homo sapiens) (UniProt Q16665).

Chain of UniProt Q09472 (Q09472 331-417): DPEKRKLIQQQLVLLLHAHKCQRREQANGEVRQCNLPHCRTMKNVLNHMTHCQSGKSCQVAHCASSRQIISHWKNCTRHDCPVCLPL

As to “HIF-1α helix 3 unconstrained peptide helix 3 (from UniProt Q16665)”, the Kd in data set [1] was 6060 nM.

Consider HIF-1α C-TAD helix 2 peptide, for which the equilibrium dissociation constant (Kd) in data set [2] is 825 nM.

Regarding cyclo-CLLFVY, the Kd in data set [3] is 124 nM.

What is called Kd is the constant that tells how readily two partners part at equilibrium.
